These results are taken from patent publication US20100310590A1.

B1: SEQ ID NO:4 (protein)
chain: MSWQTYVDEHLMCDIDGQASNSLASAIVGHDGSVWAQSSSFPQFKPQEITGIMKDFEEPGHLAPTGLHLGGIKYMVIQGEAGAVIRGGEGSGGITIKKTGQALVFGIYEEPVTPGQCNMVVERLGDYLIDQGL
B2: SEQ ID NO:3 (protein)
chain: B1 chain with K45T, G88K, E89K
B3: SEQ ID NO:2 (protein)
chain: B1 chain with S39A, G88K, E89K
B4: wild-type Bet v 2 allergen (SEQ ID NO:1) (protein)
chain: B1 chain with G88K, E89K
B5: SEQ ID NO:6 (protein)
chain: B1 chain with S39A

Residue numbers refer to the chain shown, from its start.

The test addresses IgEs from a serum pool of patients allergic to birch pollen (RAST 3+ and 4+ to Bet v 2) (human). The test can be described thus: REAST inhibition: serum pool pre-incubated with inhibitor, IgE captured on anti-IgE plate, biotinylated Bet v 2 detection.
Regarding B1, the percent inhibition of Bet v 2 wt binding to IgE at 1.45 ng inhibitor was determined as 13.4%.

In turn, B2 came in with a percent inhibition of Bet v 2 wt binding to IgE at 1.45 ng inhibitor of 71%.

As to B3, the percent inhibition of Bet v 2 wt binding to IgE at 1.45 ng inhibitor amounted to 40.4%.

As to B4, the percent inhibition of Bet v 2 wt binding to IgE at 1.45 ng inhibitor was 82.6%.

As to B5, the percent inhibition of Bet v 2 wt binding to IgE at 1.45 ng inhibitor turned out to be 8.8%.
